From publication PMC7156744, “CdbA is a DNA-binding protein and c-di-GMP receptor important for nucleoid organization and segregation in Myxococcus xanthus” (Nature Communications, 2020)
Blank lines part the entries; values can stand above or below the compound they belong to.

Experiments:
CdbA = biological target: T1, CdbA (Myxococcus xanthus, UniProt Q1D489); test: ITC (also DRaCALA, SEC, HDX-MS; EMSA shows inhibition of DNA binding)
T1 construct: gene MXAN_4361; full-length CdbA-His6 (67 amino acids), tetramer

[1] = biological target: T2, CdbA-His6 (Myxococcus xanthus DK1622) (UniProt Q1D489); test: EMSA; conditions: 10x buffer: 380 mM HEPES, 380 mM NaCl, 50 mM MgCl2, 50% glycerol, 10 mM DTT, 15 ng/ul poly(dI-dC), 50 ng probe, 30 C 30 min, 10% PAGE 1x TBE 4 C, pH not …
T2 sequence: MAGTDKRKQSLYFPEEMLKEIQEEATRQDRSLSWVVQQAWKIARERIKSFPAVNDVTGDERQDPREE

[2] = biological target: CdbA-His6 (C-terminally His6-tagged CdbA, MXAN_4361) (Myxococcus xanthus); test: crystal structure; crystal form two (tetrameric form) of full-length CdbA-His6, 0.1 M sodium malonate, 0.1 M HEPES-NaOH pH 7.0, 30% polyacrylic acid sodium salt 2100; molecular replacement; three copies in the asymmetric unit
[3] = biological target: CdbA-His6 (C-terminally His6-tagged CdbA, MXAN_4361) (Myxococcus xanthus); test: SEC; analytical SEC, 200 µM CdbA wild-type or variant without c-di-GMP, Superdex S200 Increase 10/300 GL, SEC buffer (20 mM HEPES-Na pH 7.5, 200 mM NaCl, 20 mM MgCl2, 20 mM KCl), 4 °C; oligomer size from apparent molecular mass
[4] = biological target: CdbA-His6 (C-terminally His6-tagged CdbA, MXAN_4361) (Myxococcus xanthus); test: crystal structure; crystal form one (dimeric form) of full-length CdbA-His6, 0.1 M MgCl2, 0.1 M HEPES-NaOH pH 7.0, 15% PEG 4000; SAD phasing with a Pt derivative; residues 5-52 traced
[5] = biological target: CdbA-His6 (C-terminally His6-tagged CdbA, MXAN_4361) (Myxococcus xanthus); test: as above; remark: listed apart in the source
[6] = biological target: CdbA-His6 (C-terminally His6-tagged CdbA, MXAN_4361) (Myxococcus xanthus); test: SEC; analytical SEC, 200 µM CdbA incubated with 200 µM c-di-GMP for 1 minute at 25 °C, Superdex S200 Increase 10/300 GL, SEC buffer, 4 °C; oligomer size from apparent molecular mass
[7] = biological target: CdbA^K8A/S10A-His6 (Myxococcus xanthus); test: SEC; analytical SEC, 200 µM CdbA wild-type or variant without c-di-GMP, Superdex S200 Increase 10/300 GL, SEC buffer (20 mM HEPES-Na pH 7.5, 200 mM NaCl, 20 mM MgCl2, 20 mM KCl), 4 °C; oligomer size from apparent molecular mass
[8] = biological target: CdbA^R27A/R30A-His6 (Myxococcus xanthus); test: as above
[9] = system: CdbA-His6 (Myxococcus xanthus DK1622); test: EMSA; conditions: 10x buffer: 380 mM HEPES, 380 mM NaCl, 50 mM MgCl2, 50% glycerol, 10 mM DTT, 15 ng/ul poly(dI-dC), 50 ng probe, 30 C 30 min, 10% PAGE 1x TBE 4 C, pH not …

- Kd (CdbA): ~83 nM
Compound: Nc1nc2c(ncn2[C@@H]2O[C@@H]3CO[P@](=O)(O)O[C@H]4[C@@H](O)[C@H](n5cnc6c(=O)[nH]c(N)nc65)O[C@@H]4CO[P@](=O)(O)O[C@H]3[C@H]2O)c(=O)[nH]1 [c-di-GMP]

Compound: ACTTGGGTCTCCGGGGCGGATTCGGGGTGACGACCTGAACACACCTGGGCCGTTATCCGACAGACTCCCAAGTGGGTCAACGGTTTCCAAGGACTCATTCCGAGGTCGCACGGTCCGTCCCCGTGCTCGTCCAGTTGCACGTAAGCTGTGCAACCATGCGCGAAAAAGGAAACGCCCCGGACTCCACGAGGAAGTCCGGGGCGCTTCGGAAAGAGGGACCGCCTAGAGAAATCTCCAGGCGGGCCCGTGG (double strand) [cdbAB promoter]
- Kd [1]: 900 nM

- stoichiometry N [2]: 4
- stoichiometry N [3]: 4
- stoichiometry N [4]: 4
- stoichiometry N [5]: 2
- stoichiometry N [6]: 4
Compound: CdbA-His6 (C-terminally His6-tagged CdbA, MXAN_4361) (natural protein)

- stoichiometry N [7]: 4
Compound: CdbA^K8A/S10A-His6 (natural protein)

- stoichiometry N [8]: 4
Compound: CdbA^R27A/R30A-His6 (natural protein)

Compound: GACACACCTTCTCCGAGCGGCTTGCGGTGTTCGGGGGACTCGGGCTTGCGCTCGGGTTCGGCGCGGGCCTGCGCGGAGACGCGGAAGCCTTCACTGGGGTTCAGTGGATCTTCCCGGTCGGATCGAAGTGAATTTCTTGCGATCAGACCGACTTGTGAGAATGTACGCGCATCTACAGGAGGTCGCGCACATGGACATGAATCCCCGTCTTACCTCAGTGGTCTTCCGGCTCAACCGCGAGAAGCTCGAC (double strand) [MXAN_4058 promoter, two repeats mutated]
- Kd [1]: 2500 nM

Compound: GACACACCTTCTCCGAGCGGCTTGCGGTGTTCGGGGGACTCGGGCTTGCGCTCGGGTTCGGCGCGGGCCTGCGCGGAGACGCGGAAGCCTTCACTGGGGTTCAGTGGATCTTCCCGGTCGGATCGAAGTGAATTTCTTGCGATCAGACCGACTTGTGAGAATGTGTGCGCATCTACAGGAGGTCGCGCACATGGACATGAATCCCCGTCTTACCTCAGTGGTCTTCCGGCTCAACCGCGAGAAGCTCGAC (double strand) [MXAN_4058 promoter, one repeat mutated]
- Kd [1]: 1100 nM

Compound: GACACACCTTCTCCGAGCGGCTTGCGGTGTTCGGGGGACTCGGGCTTGCGCTCGGGTTCGGCGCGGGCCTGCGCGGAGACGCGGAAGCCTTCACTGGGGTTCAGTGGATCTTCCCGGTCGGATCGAAGTGAATTTCTTGCGATCAGACCGACTTGTGAGAATGTGTGCGCATCTGTAGGAGGTCGCGCACATGGACATGAATCCCCGTCTTACCTCAGTGGTCTTCCGGCTCAACCGCGAGAAGCTCGAC (double strand) [peak rank #1 fragment (MXAN_4058 promoter), WT]
- Kd [1]: 400 nM

Compound: cdbAB promoter
- Kd [9]: 900 nM

Compound: no-peak control fragment
- Kd [9]: 4000 nM

Compound: peak rank #1 fragment (MXAN_4058 promoter), WT
- Kd [9]: 400 nM
